Earlier results on two substances are cited in paper PMC3694163.

One data set addresses IR (Homo sapiens) (UniProt P06213).
A further data set addresses IGFBP6 (Homo sapiens) (UniProt P24592).

insulin, sequence (P01308 90-110): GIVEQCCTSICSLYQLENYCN
IGFBP6 (Homo sapiens), sequence (P24592 28-240): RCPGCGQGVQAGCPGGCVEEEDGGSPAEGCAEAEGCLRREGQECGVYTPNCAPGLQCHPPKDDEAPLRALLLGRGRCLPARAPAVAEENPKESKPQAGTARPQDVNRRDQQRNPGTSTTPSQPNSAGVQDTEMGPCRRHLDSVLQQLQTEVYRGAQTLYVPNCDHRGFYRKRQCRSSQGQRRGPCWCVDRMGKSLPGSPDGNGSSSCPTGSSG

Consider insulin (from UniProt P01308), for which the Kd with IR (Homo sapiens) is 0.1 nM.

With IGF-II (from UniProt P01344), the Kd with IGFBP6 (Homo sapiens) was 5.7 nM.
